Experimental findings from article PMC11115250 are described below.

In this assay the target is PPARγ (plasmid-encoded, Addgene #8862) (UniProt P37238).

Where only a bound is given, the exact number is not on record here.

In turn, “ZFP407 (plasmid-encoded, Origene cat. MR214555) (natural protein)” returned a PPRE luciferase reporter in 293T cells, PPARγ co-transfected with WT ZFP407 against PPARγ alone of more than 2 fold.
